Target: Nucleoprotein (NP) (Influenza A virus, UniProt P03466 SEQ:1-498)
Test: SPR; 2 uM, 22 C
Conditions: tags: His tag (pET28a, Co2+ resin purification), E. coli; label: 5'-amino-C12 linker (microarray); hairpin with bulge, internal loop and lateral small hairpin

Sequence of Nucleoprotein (NP) (P03466 whole entry): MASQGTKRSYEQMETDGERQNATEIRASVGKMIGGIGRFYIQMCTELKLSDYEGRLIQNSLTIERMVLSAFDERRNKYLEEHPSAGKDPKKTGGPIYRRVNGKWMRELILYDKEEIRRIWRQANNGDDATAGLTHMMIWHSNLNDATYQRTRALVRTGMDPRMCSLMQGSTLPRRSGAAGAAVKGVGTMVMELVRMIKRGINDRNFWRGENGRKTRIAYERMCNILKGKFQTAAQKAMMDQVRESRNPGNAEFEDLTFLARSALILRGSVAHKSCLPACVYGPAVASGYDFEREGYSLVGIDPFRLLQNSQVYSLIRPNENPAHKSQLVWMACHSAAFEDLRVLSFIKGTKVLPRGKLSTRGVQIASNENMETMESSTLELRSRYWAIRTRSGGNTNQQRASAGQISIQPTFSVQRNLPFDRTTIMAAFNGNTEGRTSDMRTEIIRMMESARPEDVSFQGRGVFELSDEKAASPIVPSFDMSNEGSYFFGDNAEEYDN

B1: M1R9C6 36-mer (ssRNA)
RNA: UGCCCUGACCAUCCUGAGGGACGCAUUGGCCGGGCA
B1: no binding.

B2: M1R9C1 36-mer (ssRNA)
RNA: UGCCUGACCACUCAGAAUCGAGCGCAUUGGCCGGCA
B2: no binding.

Reference: patent US20120295811, “APTAMERS DIRECTED AGAINST THE MATRIX PROTEIN-1 OF TYPE A INFLUENZA VIRUSES AND USES […]” (published 2012)
